Measured values from article PMC10213050 (Nature Communications, 2023).

How the values were obtained:
[1] = target: Rad51 (Saccharomyces cerevisiae (yeast), UniProt P25454 1-400); experiment: pull-down; ATP; Pull-down: 42 mM Tris-HCl pH 7.5, 15 mM KCl, 90 mM NaCl, 2 mM ATP, 1 mM EDTA, 0.5% NP-40, 1 mM DTT, 20 ug/mL BSA, 5% glycerol, 37 C; EMSA: 42 mM MOPS pH 7.2, 3; settings: protein: recombinant; tags: 6xHis (pET30a) or GST-cleaved; label: 5'-biotin
[2] = target: hRad51 (Homo sapiens, UniProt Q06609 1-339); experiment: as above; settings: protein: recombinant; tags: 6xHis or GST-cleaved; chain copies: 10; label: 5'-biotin
[3] = target: T1, Bre1 (Saccharomyces cerevisiae (yeast), UniProt Q07457 1-700); experiment: pull-down; Bre1 alone; Pull-down: 42 mM Tris-HCl pH 7.5, 15 mM KCl, 90 mM NaCl, 2 mM ATP, 1 mM EDTA, 0.5% NP-40, 1 mM DTT, 20 ug/mL BSA, 5% glycerol, 37 C; EMSA: 42 mM MOPS pH 7.2, 3; settings: protein: recombinant; tags: 6xHis; label: 5'-biotin
T1 sequence: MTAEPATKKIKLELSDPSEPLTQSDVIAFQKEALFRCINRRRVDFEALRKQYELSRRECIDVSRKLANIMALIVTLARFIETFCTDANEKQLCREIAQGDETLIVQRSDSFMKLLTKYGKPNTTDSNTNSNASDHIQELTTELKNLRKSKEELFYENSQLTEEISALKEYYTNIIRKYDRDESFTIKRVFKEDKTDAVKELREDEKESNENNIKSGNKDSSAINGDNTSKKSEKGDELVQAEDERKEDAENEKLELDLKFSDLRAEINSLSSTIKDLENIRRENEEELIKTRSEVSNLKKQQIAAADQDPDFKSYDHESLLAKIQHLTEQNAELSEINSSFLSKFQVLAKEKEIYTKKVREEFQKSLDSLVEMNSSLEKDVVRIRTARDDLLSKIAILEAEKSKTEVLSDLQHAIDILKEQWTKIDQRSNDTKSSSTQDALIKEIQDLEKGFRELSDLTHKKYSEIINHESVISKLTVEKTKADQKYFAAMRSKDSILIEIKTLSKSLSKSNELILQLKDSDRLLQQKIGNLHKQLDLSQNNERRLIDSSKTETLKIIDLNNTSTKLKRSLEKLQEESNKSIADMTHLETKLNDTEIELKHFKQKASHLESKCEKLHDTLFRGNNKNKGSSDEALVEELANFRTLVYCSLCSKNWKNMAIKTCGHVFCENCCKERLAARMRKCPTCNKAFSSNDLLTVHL

[4] = target: Srs2 (Saccharomyces cerevisiae (yeast), UniProt P12954 1-1174); experiment: pull-down; 200 nM ssDNA; Pull-down: 42 mM Tris-HCl pH 7.5, 15 mM KCl, 90 mM NaCl, 2 mM ATP, 1 mM EDTA, 0.5% NP-40, 1 mM DTT, 20 ug/mL BSA, 5% glycerol, 37 C; EMSA: 42 mM MOPS pH 7.2, 3; settings: protein: recombinant; tags: GST (pGEX-6p-1); label: 5'-biotin
[5] = target: RNF20N (Homo sapiens, UniProt Q5VTR2 1-300); experiment: pull-down; RNF20N alone; Pull-down: 42 mM Tris-HCl pH 7.5, 15 mM KCl, 90 mM NaCl, 2 mM ATP, 1 mM EDTA, 0.5% NP-40, 1 mM DTT, 20 ug/mL BSA, 5% glycerol, 37 C; EMSA: 42 mM MOPS pH 7.2, 3; settings: protein: recombinant; tags: GST (pGEX-6p-1); label: 5'-biotin
[6] = target: Rad51;Bre1 (Saccharomyces cerevisiae …, UniProt P25454;Q07457 1-400;1-700, |); experiment: pull-down; ATP; Bre1 stimulates Rad51 binding and is co-captured; Pull-down: 42 mM Tris-HCl pH 7.5, 15 mM KCl, 90 mM NaCl, 2 mM ATP, 1 mM EDTA, 0.5% NP-40, 1 mM DTT, 20 ug/mL BSA, 5% glycerol, 37 C; EMSA: 42 mM MOPS pH 7.2, 3; settings: protein: recombinant;recombinant; tags: 6xHis (pET30a) or GST-cleaved;6xHis; label: 5'-biotin
[7] = target: hRad51;RNF20N (Homo sapiens;Homo sapiens, UniProt Q06609;Q5VTR2 1-339;1-300, |); experiment: pull-down; ATP; RNF20N stimulates hRad51 binding and is co-captured; Pull-down: 42 mM Tris-HCl pH 7.5, 15 mM KCl, 90 mM NaCl, 2 mM ATP, 1 mM EDTA, 0.5% NP-40, 1 mM DTT, 20 ug/mL BSA, 5% glycerol, 37 C; EMSA: 42 mM MOPS pH 7.2, 3; settings: protein: recombinant;recombinant; tags: 6xHis or GST-cleaved;GST (pGEX-6p-1); label: 5'-biotin
hRad51;RNF20N, sequence (Q06609 whole entry, chain 1 of 2): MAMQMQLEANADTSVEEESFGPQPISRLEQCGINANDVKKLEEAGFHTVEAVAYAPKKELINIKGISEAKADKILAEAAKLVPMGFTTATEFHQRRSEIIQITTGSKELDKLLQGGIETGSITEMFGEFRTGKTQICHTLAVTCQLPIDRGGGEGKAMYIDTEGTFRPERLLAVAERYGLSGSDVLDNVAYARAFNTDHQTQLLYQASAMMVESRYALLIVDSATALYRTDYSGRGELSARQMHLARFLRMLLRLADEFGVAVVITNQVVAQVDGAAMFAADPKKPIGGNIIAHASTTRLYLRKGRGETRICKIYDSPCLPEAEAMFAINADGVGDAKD
hRad51;RNF20N, sequence (Q5VTR2 1-300, chain 2 of 2): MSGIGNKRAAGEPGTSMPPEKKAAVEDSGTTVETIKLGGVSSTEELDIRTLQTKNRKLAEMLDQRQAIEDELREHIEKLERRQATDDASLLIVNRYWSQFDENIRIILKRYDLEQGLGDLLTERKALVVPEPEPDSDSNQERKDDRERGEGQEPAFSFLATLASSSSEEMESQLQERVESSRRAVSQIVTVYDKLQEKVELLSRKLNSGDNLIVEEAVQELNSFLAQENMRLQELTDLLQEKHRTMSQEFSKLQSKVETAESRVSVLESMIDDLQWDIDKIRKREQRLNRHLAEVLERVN

Srs2, sequence (P12954 whole entry): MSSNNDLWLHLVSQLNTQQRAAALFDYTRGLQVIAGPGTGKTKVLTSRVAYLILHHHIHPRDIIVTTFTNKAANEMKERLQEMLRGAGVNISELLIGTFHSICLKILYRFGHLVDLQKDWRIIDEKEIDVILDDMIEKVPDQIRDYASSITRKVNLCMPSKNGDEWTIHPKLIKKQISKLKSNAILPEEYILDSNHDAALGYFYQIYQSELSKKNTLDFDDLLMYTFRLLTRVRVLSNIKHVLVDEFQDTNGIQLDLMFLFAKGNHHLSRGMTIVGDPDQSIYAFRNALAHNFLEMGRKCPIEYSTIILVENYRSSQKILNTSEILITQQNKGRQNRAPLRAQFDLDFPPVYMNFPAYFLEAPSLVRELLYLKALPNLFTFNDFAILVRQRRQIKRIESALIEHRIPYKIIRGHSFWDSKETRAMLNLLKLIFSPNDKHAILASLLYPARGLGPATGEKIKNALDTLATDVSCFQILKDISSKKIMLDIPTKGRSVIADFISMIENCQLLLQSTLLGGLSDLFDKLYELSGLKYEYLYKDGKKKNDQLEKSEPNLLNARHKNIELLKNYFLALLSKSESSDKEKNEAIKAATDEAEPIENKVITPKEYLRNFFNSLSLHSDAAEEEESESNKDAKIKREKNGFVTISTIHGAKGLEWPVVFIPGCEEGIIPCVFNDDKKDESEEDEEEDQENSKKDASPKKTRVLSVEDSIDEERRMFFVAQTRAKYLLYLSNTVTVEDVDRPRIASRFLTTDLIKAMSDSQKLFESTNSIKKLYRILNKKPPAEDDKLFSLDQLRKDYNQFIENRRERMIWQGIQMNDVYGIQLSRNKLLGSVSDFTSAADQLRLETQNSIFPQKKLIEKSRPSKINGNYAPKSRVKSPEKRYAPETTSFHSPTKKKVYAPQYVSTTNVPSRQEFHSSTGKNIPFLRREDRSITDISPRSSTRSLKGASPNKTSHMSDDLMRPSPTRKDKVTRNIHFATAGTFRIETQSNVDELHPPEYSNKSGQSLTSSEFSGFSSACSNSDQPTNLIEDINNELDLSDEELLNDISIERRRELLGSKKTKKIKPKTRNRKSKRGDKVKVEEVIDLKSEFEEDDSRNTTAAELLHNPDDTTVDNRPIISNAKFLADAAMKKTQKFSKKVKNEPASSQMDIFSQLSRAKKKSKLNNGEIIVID
RNF20N, sequence (Q5VTR2 1-300): as the sequence (Q5VTR2 1-300, chain 2 of 2) above
hRad51, sequence (Q06609 whole entry): as the sequence (Q06609 whole entry, chain 1 of 2) above
Rad51;Bre1, sequence (P25454 whole entry, one chain of several): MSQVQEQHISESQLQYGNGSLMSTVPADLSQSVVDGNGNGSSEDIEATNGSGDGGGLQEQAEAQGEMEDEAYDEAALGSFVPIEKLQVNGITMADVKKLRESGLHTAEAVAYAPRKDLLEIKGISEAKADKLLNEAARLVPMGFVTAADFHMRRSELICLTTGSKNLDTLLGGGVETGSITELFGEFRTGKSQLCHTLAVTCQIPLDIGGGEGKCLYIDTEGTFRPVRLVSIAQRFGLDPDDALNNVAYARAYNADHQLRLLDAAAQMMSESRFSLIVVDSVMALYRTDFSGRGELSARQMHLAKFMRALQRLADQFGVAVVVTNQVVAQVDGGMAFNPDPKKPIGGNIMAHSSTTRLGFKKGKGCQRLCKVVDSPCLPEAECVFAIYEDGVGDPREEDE
Rad51, sequence (P25454 whole entry): as the sequence (P25454 whole entry, one chain of several) above

B1: 90-nt ssDNA (ssDNA)
DNA: CGACAGGTCATGGCCGTACATGATATCCTCGAGCGTCCTGTTGCAACTTACACTCTGAATAGCCGAATTCTTAGGGTTAGGGTTAACA
- binding result [1]: binds
- binding result [2]: binds
- binding result [3]: no binding
- binding result [4]: binds
- binding result [5]: no binding
- binding result [6]: binds
- binding result [7]: binds
